Source: PMC13083928, “ALS mutations disrupt self-association between the ubiquilin STI1 hydrophobic groove and internal placeholder sequences” (The EMBO Journal, 2026)

B1: variant of the VAMP2 TMD, as it stands in the crystallization construct (peptide)
peptide: MMIALGVACAIALAIAAVYF
notes: variant of the VAMP2 TMD; Written as a molecule of its own because it is joined with the STI1 domain on one chain for the structure; in the experiment it was part of m1; source: part of the STI1-FrzS-TMD fusion; E. coli BL21 DE3 pRIL, purified (Ni-NTA, SEC)

Legend:
[1] = target: 3xHA-Sec61β soluble domain-Omp25 TMD-3F4 (single substrate); settings: 3 μM recombinant 3xFLAG-UBQLN2 variants; parent: est. 49; read off a plot
[2] = target: the molecule itself; assay: crystal structure; STI1-FrzS-TMD fusion construct; hanging-drop vapor diffusion at 4 °C, 2.5% MPD, 100 mM Tris pH 8.5; 1.98 Å

Molecule | response (Elution / Input) [1] | binding result [2]
3xFLAG-UBQLN2 (wild type), recombinant (from UniProt Q9UHD9) M446R | 57 | 
3xFLAG-UBQLN2 (wild type), recombinant (from UniProt Q9UHD9) P440L | 54 | 
B1 |  | binds
